In patent US20090035322A1 (Regeneron, published 2009):
Like-named read-outs stand apart in the source and are kept apart here.

T1: mutant human CD20 #1 (Y77F) (human, UniProt P11836 1-297)
T1 construct: Human residues replaced by mouse residues; stably expressed on MG87 cells
T1 sequence: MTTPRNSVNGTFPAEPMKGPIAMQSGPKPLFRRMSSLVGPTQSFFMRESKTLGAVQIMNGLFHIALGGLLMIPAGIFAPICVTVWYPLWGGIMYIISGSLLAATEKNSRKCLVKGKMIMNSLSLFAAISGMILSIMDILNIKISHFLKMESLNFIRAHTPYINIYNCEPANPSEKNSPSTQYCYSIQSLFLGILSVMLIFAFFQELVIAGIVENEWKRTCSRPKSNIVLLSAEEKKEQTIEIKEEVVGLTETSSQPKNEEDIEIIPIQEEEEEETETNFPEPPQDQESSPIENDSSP

T2: mutant human CD20 #8 (Y77F, N163D, N166D) (human, UniProt P11836 1-297)
T2 construct: Stably expressed on MG87 cells
T2 chain: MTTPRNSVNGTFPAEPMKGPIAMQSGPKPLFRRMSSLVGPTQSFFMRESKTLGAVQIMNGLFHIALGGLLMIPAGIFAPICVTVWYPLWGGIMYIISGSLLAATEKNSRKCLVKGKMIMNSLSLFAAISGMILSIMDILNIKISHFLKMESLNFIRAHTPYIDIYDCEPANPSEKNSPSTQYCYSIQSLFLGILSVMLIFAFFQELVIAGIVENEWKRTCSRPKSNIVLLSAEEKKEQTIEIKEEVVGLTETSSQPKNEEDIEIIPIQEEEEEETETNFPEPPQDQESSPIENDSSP

T3: mutant human CD20 #7 (Y77F, N163D) (human, UniProt P11836 1-297)
T3 construct: Stably expressed on MG87 cells
T3 chain: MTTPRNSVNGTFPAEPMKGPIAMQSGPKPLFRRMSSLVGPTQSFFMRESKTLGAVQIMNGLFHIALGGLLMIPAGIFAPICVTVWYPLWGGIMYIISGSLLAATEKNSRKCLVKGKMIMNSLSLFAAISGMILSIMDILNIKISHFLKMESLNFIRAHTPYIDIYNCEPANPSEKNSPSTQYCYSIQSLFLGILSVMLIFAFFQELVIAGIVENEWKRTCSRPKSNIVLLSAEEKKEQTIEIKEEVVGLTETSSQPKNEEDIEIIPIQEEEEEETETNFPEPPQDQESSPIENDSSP

T4: mutant human CD20 #9 (N163D, N166D) (human, UniProt P11836 1-297)
T4 construct: Stably expressed on MG87 cells
T4 chain: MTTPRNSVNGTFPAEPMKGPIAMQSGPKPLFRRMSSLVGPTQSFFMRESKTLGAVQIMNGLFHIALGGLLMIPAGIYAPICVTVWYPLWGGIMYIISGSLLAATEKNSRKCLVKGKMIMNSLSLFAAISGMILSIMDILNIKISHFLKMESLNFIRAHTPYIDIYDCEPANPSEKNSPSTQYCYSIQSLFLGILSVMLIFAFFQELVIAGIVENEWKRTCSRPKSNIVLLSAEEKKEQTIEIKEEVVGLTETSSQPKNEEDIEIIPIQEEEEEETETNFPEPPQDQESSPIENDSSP

T5: human CD20 (human, UniProt P11836 1-297)
T5 sequence: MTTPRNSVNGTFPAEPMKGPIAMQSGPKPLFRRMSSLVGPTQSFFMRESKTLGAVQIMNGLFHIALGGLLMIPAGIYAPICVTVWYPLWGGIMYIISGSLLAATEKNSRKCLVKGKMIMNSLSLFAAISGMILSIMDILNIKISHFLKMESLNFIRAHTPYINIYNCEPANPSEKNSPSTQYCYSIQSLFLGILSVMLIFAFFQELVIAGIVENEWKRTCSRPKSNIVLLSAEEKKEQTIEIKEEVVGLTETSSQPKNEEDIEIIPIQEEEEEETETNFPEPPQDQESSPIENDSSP


Tests used:
[1] = molecular target: T1, mutant human CD20 #1 (Y77F); test: FACS, mutant-hCD20 MG87 cells; 100%=best antibody
Procedure: (§1) Briefly, approximately 1×10⁶ cells from each stably transfected cell line expressing a mutant human CD20 were collected and incubated with each anti-human antibody, at 10 μg/ml, on ice for 1 hr, followed by incubation with APC-conjugated goat anti-human IgG (Jackson Immunolabs), at 10 μg/ml, on ice for 45 min. For each antibody, binding to each mutant human CD20 was assessed by flow cytometry.

[2] = molecular target: T2, mutant human CD20 #8 (Y77F, N163D, …); test: FACS, mutant-hCD20 MG87 cells; 100%=best antibody
Procedure: as §1

[3] = molecular target: T3, mutant human CD20 #7 (Y77F, N163D); test: FACS, mutant-hCD20 MG87 cells; 100%=best antibody
Procedure: as §1

[4] = molecular target: T4, mutant human CD20 #9 (N163D, N166D); test: FACS, mutant-hCD20 MG87 cells; 100%=best antibody
Procedure: as §1

human CD20 [5] = molecular target: T5, human CD20; test: cell-based or functional assay
human CD20 [6] = molecular target: T5, human CD20; test: cell-based or functional assay; remark: listed apart in the source
human CD20 [7] = molecular target: T5, human CD20; test: flow cytometry, hCD20-transfected MG87 cells
Procedure: Briefly, parental MG87 and human CD20-transfected MG87 cells were incubated for 30 min at 4° C. with each of the 15 human antibodies and the two control antibodies, followed by incubation with PE-conjugated anti-human IgG antibody. Binding was assessed by flow cytometry. Fluorescence intensities were compared with binding to the parental cell line and control isotype-matched sample.

human CD20 [8] = molecular target: T5, human CD20; test: cell-based or functional assay; remark: listed apart in the source

| Binder | Percent of Binding to Mutant Human CD20 [1] [%] | Percent of Binding to Mutant Human CD20 [2] [%] | Percent of Binding to Mutant Human CD20 [3] [%] | Percent of Binding to Mutant Human CD20 [4] [%] | CDC, Daudi EC50 (human CD20 [5]) [nM] | CDC, RL EC50 (human CD20 [5]) [nM] | % Cytotoxicity (CDC, Daudi), 0 hour (human CD20 [6]) [%] | % Cytotoxicity (CDC, Daudi), 1 hour (human CD20 [6]) [%] | % Cytotoxicity (CDC, Daudi), 6 hour (human CD20 [6]) [%] | Total Mean Fluorescent Intensity (human CD20 [7]) | % Cytotoxicity (CDC, Daudi), 0 hour (human CD20 [8]) [%] | % Cytotoxicity (CDC, Daudi), 1 hour (human CD20 [8]) [%] | % Cytotoxicity (CDC, Daudi), 6 hour (human CD20 [8]) [%] |
| --- | --- | --- | --- | --- | --- | --- | --- | --- | --- | --- | --- | --- | --- |
| 3B9-10 (antibody, V domains shown, Fully human IgG, constant region not specified; also called 3B9-10N) VH: EVQLVESGGGLVQPGRSLRLSCVASGFTFNDYAMHWVRQAPGKGLEWVSVISWNSDSIGYADSVKGRFTISRDNAKNSLYLQMHSLRAEDTALYYCAKDNHYGSGSYYYYQYGMDVWGQGTTVTVSS VL: EIVMTQSPATLSVSPGERATLSCRASQSVSSNLAWYQQKPGQAPRLLIYGTSTRATGIPARFSGSGSGTEFTLTISSLQSEDFAVYYCQQYNNWPLTFGGGTKVEIK | 56 | 0 | 1 | 4 | 1.86 | 8.84 | 98.4 | 97.9 | 82.2 | 2990 |  |  |  |
| 3H7-6 (antibody, V domains shown, Fully human IgG, constant region not specified; also called 3H7-6N) VH: EVQLVESGGGLVQPGRSLRLSCAASGFTFYDYAMHWVRQAPGKGLEWVSGISWNSGYIGYADSVKGRFTISRDNAKNSLYLQMNSLRAEDTALYYCAKDNSYGKFYYGLDVWGQGTTVTVSS VL: EIVMTQSPATLSVSPGERTTLSCRASQSVSSNLAWYLQKPGQAPRLLIYGASTRATGIPARFSGSGSGTEFILTISSLQSEDFAVYYCQQYNNWPITFGQGTRLEIK | 28 | 0 | 1 | 3 | 0.44 | 3.66 |  |  |  | 3300 | 97.5 | 94 | 67.6 |
| 9C3-8 (antibody, V domains shown, Fully human IgG, constant region not specified; also called 9C3-8N) VH: EVQLVESGGGLVQPGRSLRLSCAASGFSFHDYAMHWVRQAPGKGLEWVSGISWNSDSLGYADSVKGRFTISRDNAKNSLYLQMNSLRAEDTALYYCAKDNHYGSGSHYYYKYGMDVWGQGTTVTVSS VL: not shown | 36 | 0 | 1 | 3 | 2.22 | 11.1 | 98.7 | 98.5 | 76.9 | 2910 |  |  |  |
| 6B9-4 (antibody, V domains shown, Fully human IgG, constant region not specified; also called 6B9-4N) VH: EEQLVESGGDLVQPGRSLRLSCAASGFTFHDYTMHWVRQAPGKGLEWVSGISWNSGSIGYADSVKGRFTISRDNAKNSLYLQMNSLRIEDTALYYCAKDPSYGSGSYYYYYGMDVWGQGTTVTVSS VL: EIVLTQSPATLSLSPGERATLSCRASQSVSSYLVWYQQRPGQAPRLLIYEASNRATGIPARFSGSGSGTDFTLTISSLESEDFAVYYCQQRSNWPLTFGGGTKVEIK | 74 | 0 | 2 | 3 | 0.34 | 0.97 |  |  |  | 2930 | 98.1 | 98.5 | 97.5 |
| 7E1-13 (antibody, V domains shown, Fully human IgG, constant region not specified; also called 7E1-13N) VH: EVQLVESGGGLVQPGRSLRLSCTASGFTFGDFPMHWVRQAPGKGLEWVSGITWNSGSIVYADSVKGRFTISRDNAKNSLYLQMNSLRTEDTALYYCAKDSHYGSGNFYYYYYGMDVWGQGTTVTVSS VL: not shown | 94 | 0 | 1 | 4 | 1.59 | 5.81 | 98.1 | 98.5 | 89.3 | 3080 |  |  |  |
| 2C11-4 (antibody, V domains shown, Fully human IgG, constant region not specified; also called 2C11-4N) VH: EVQLVESGGGLVQPGRSLRLSCAASGFTFRDYAMHWVRQGPGKGLEWVSGISWNTDYIGYADSVKGRFTISRDNAKNSLYLQMNSLRPEDTALYYCAKDARYGRDNYYGMDVWGQGTTVTVSS VL: EIVLTQSPATLSLSPGERATLSCRASQSVSRYLAWYQQKPGQAPRLLIHDASNRATGIPARFSGSGSGTDFTLTITSLEPEDFVVYYCQQRSDWPITFGQGTRLEIK | 35 | 0 | 1 | 3 | > 50 | 5.19 | 29.1 | 14 | 22.4 | 2010 |  |  |  |
| 9H4-12 (antibody, V domains shown, Fully human IgG, constant region not specified; also called 9H4-12N) VH: EVQLVESGGGLVQPGRSLRLSCAASGFTFDDYAMHWVRQVPGKGLEWVSGISWNSGSIGYADSVKGRFTISRDNAKNSLYLQMNSLRAEDTALYYCAKDMGYGNYYHYGMDVWGQGTTVTVSS VL: DIVLTQSPATLSLSPGERATLSCRASQSVSSYLAWYQQKPGQAPRLLICDASHRATRIPARFSGSGSGTDFTLTISSLEPEDFAVYYCQQRSNWPITFGQGTRLEIK | 19 | 0 | 2 | 4 | 51.1 | 29.6 | 43.2 | 17.4 | 23.1 | 2040 |  |  |  |
